Experimental data reported in PMC5765355, “Phosphorylation of Pnut in the Early Stages of Drosophila Embryo Development Affects Association of the Septin Complex with the Membrane and Is Important for Viability” (G3: Genes|Genomes|Genetics, 2017).
Changes are numbered by the printed parent chain.

T1: His-tagged wild-type Pnut (Drosophila melanogaster, UniProt P40797 1-539)
T1 construct: Septin Pnut (Peanut), Drosophila melanogaster, wild type; homolog of human SEPT7; also called His–Pnut; Pnut-WT; source: baculovirus expression system, expressed together with Sep1 and Sep2; assembled complex purified
T1 sequence (looked up): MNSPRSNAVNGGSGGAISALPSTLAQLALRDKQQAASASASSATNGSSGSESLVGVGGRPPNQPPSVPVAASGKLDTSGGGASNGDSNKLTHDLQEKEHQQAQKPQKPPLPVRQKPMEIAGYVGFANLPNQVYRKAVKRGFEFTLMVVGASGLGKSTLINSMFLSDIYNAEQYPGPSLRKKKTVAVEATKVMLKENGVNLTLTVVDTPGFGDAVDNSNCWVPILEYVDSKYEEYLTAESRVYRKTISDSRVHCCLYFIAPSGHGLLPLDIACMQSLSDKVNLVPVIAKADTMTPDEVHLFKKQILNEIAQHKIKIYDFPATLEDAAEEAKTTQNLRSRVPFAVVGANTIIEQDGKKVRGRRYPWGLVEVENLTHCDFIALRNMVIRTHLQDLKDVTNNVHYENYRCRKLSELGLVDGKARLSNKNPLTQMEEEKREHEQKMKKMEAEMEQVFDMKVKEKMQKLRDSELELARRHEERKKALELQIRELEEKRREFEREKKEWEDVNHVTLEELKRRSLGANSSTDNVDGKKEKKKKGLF

T2: His-tagged nonphosphorylatable Pnut-T509A/S517A (Drosophila melanogaster, UniProt P40797 1-539, T509A | S517A)
T2 construct: Septin Pnut (Peanut), Drosophila melanogaster, with T509A and S517A; source: baculovirus expression system, expressed together with Sep1 and Sep2; assembled complex purified
T2 sequence (looked up): T1 sequence (looked up) with T509A, S517A

T3: His-tagged phospho-mimetic Pnut-T509E/S517E (Drosophila melanogaster, UniProt P40797 1-539, T509E | S517E)
T3 construct: Septin Pnut (Peanut), Drosophila melanogaster, with T509E and S517E; also called T509E/S517E mutant; source: baculovirus expression system, expressed together with Sep1 and Sep2; assembled complex purified
T3 sequence (looked up): T1 sequence (looked up) with T509E, S517E

B1: Sep1 (recombinant) (natural protein, Drosophila melanogaster, UniProt P42207 1-361, looked up)
chain: MADTKGFSSIETPGYVGFANLPNQVHRKSVKKGFEFTLMVVGESGLGKSTLVNSLFLTDLYPERIIPDAIEKQKQTVKLEASTVEIEERGVKLRLTVVDTPGFGDAIDNSNSFGAILEYIDEQYERFLRDESGLNRRNIVDNRIHCCFYFISPFGHGLKPLDVEFMKKLHSKVNIVPVIAKADCLTKKEILRLKCRIMQEIESHGIKIYPLPDCDSDEDEDYKEQVKQLKEAVPFAVCGANTLLEVKGKKVRGRLYPWGVVEVENPDHCDFIKLRTMLITHMQDLQEVTQEVHYENYRSDRLAKGIKGKENGVKAERDSSSQVVSNSVLGEKDRILQEKEAELRRMQEMLAQMQARMQAQQ
notes: Septin Sep1, Drosophila melanogaster; homolog of human SEPT2; source: baculovirus expression system, expressed together with His-tagged Pnut and Sep2; assembled complex purified
B2: Sep2 (recombinant) (natural protein, Drosophila melanogaster, UniProt P54359 1-419, looked up)
chain: MSVEVDFVDKKEVHLRTLKQSGHVGFDSLPDQLVNKSVQNGFVFNVMCIGETGLGKSTLMDTLFNTSFESTPSPHTLPSVKLKAHTYELQESNVRLKLTICDTVGYGDQINKDDSFKAVVDYIDAQFENYLQEELKIKRSLVTCHDSRIHICLYFICPTGHGLKSLDLVCMKKLDSKVNIIPVIAKADTISKVELQRFKAKIIQELNANGVHIYQFPTDDETVAETNTSMNSHIPFAVVGSTEFIKVGNKLIRARQYPWGTVQVENETHCDFVKLREMLIRTNMEDMREKTHTRHYELYRQKRLEQMGFSDVDSDNKPISFQQTFEAKRSNHLAELQSKEEEVRQMFVQRVKEKEAELKESEKDLHAKFEKLKRDHAEEKRKLEESRKALEEDYLDFQRRKQQLATAHHTLTLGKSKKK
notes: Septin Sep2, Drosophila melanogaster; homolog of human SEPT6; source: baculovirus expression system, expressed together with His-tagged Pnut and Sep1; assembled complex purified

Tests used:
Conditions in all cases: both partners purified
[1] = biological target: T1, His-tagged wild-type Pnut; experiment: pull-down; 2 µg purified recombinant septin complex diluted in 200 µl pull-down buffer (25 mM HEPES pH 7.6, 2 mM MgCl2, 10 mM imidazole) with 50 mM KCl; His-Pnut held on HisPur Ni-NTA resin, 1 hr at 22°; eluted with 250 mM imidazole; silver-stained SDS-PAGE; Sep1 given as a percentage of the Pnut amount
[2] = biological target: T2, His-tagged nonphosphorylatable …; experiment: as above
[3] = biological target: T3, His-tagged phospho-mimetic …; experiment: as above
[4] = biological target: T1, His-tagged wild-type Pnut; experiment: pull-down; 2 µg purified recombinant septin complex diluted in 200 µl pull-down buffer (25 mM HEPES pH 7.6, 2 mM MgCl2, 10 mM imidazole) with 300 mM KCl; His-Pnut held on HisPur Ni-NTA resin, 1 hr at 22°; eluted with 250 mM imidazole; silver-stained SDS-PAGE; Sep1 given as a percentage of the Pnut amount
[5] = biological target: T2, His-tagged nonphosphorylatable …; experiment: as above
[6] = biological target: T3, His-tagged phospho-mimetic …; experiment: as above

| Binder | amount of Sep1 as a percentage of the Pnut amount [1] | amount of Sep1 as a percentage of the Pnut amount [2] | amount of Sep1 as a percentage of the Pnut amount [3] | amount of Sep1 as a percentage of the Pnut amount [4] | amount of Sep1 as a percentage of the Pnut amount [5] | amount of Sep1 as a percentage of the Pnut amount [6] | binding result [3] | binding result [4] | binding result [5] |
| --- | --- | --- | --- | --- | --- | --- | --- | --- | --- |
| B1 | 34% | 17% | 1% | 62.3% | 62% | 31% | – | – | – |
| B2 | – | – | – | – | – | – | binds | binds | binds |
